Values of other authors as cited in publication PMC8567204.
Where two headings read alike, the source gives them in different places. Each block holds one substance with its values, some of them ahead of it.

How the values were obtained:
Fyn (native) SH3 = Fyn (native) SH3 (UniProt P06241)
Fyn (unfolded) SH3 = Fyn (unfolded) SH3 (UniProt P06241)
HscA (Escherichia coli) [1] = biological target: HscA (Escherichia coli) (UniProt P0A6Z1)
HscA (Escherichia coli) [2] = biological target: HscA (Escherichia coli) (UniProt P0A6Z1); remark: listed apart in the source
HscB (Escherichia coli) = HscB (Escherichia coli) (UniProt P0A6L9)
Sequence of HscB (Escherichia coli) (P0A6L9 whole entry): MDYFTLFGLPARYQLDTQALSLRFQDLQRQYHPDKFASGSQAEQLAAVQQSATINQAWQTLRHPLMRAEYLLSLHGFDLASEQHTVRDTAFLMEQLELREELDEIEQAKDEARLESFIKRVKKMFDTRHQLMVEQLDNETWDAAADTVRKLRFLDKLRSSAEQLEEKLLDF

[3] = biological target: Trigger factor (Escherichia coli) (UniProt P0A850)

Sequence of apo-IscU (P0ACD4 whole entry): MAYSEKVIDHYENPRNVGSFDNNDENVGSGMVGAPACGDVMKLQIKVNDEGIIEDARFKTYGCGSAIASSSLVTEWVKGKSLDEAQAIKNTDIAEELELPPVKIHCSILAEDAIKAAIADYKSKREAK
Sequence of Spy (P77754 24-161): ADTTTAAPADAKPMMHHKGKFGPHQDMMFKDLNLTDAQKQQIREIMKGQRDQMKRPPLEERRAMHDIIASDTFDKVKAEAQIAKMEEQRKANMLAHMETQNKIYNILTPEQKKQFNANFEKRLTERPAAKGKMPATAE
Sequence of HscA (Escherichia coli) (P0A6Z1 whole entry): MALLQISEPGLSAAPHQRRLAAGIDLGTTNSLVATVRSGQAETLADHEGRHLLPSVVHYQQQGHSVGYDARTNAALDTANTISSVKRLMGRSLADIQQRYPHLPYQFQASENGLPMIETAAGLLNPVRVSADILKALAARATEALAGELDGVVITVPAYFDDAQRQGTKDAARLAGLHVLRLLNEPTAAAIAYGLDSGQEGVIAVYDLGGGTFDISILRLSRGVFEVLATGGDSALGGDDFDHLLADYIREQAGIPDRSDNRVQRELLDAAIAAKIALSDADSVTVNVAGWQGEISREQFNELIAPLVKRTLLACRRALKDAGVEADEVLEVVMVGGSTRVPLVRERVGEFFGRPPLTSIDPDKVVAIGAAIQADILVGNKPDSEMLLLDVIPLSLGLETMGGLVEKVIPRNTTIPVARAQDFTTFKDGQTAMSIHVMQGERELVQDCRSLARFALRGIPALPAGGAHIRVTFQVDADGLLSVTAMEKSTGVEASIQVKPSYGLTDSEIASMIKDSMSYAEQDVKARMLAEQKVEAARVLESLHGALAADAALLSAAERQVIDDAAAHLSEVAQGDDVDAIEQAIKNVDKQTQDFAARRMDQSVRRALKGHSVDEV
Sequence of Trigger factor (P0A850 whole entry): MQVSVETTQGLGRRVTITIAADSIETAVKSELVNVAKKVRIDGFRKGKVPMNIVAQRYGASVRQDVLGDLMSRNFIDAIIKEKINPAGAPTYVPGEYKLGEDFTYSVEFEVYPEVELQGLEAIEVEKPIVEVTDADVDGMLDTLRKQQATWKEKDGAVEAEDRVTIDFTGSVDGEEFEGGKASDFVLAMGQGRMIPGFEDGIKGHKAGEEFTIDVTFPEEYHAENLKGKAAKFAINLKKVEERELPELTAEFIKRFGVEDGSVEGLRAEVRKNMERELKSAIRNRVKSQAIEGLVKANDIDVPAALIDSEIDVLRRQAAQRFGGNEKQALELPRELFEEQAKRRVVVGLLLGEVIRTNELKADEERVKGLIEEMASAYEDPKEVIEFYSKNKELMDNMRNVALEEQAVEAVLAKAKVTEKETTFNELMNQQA
Sequence of Fyn (unfolded) SH3 (P06241 82-143): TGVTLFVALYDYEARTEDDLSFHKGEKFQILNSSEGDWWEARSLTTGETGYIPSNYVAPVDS
Sequence of Fyn (native) SH3 (P06241 82-143): as above

Kd (Fyn (native) SH3): 50 µM | Kd (Fyn (unfolded) SH3): 3 µM
Substance: Spy (from UniProt P77754)

Substance: apo-IscU (from UniProt P0ACD4)
Kd (HscA (Escherichia coli) [1]): 37 µM | Kd (HscA (Escherichia coli) [2]): 9 µM | Kd (HscB (Escherichia coli)): 11 µM

Substance: Trigger factor (from UniProt P0A850)
Kd [3]: 2 µM
